Assay results: article PMC9449670 (2022)
Where no end group is shown, it is not given here.

Legend:
GsMTx4 = biological target: T1, GsMTx4 (Grammostola spatulata, UniProt Q7YT39, not fully specified); test: inside-out patch clamp dose-response (Hill fit, -50 mV)
T1 chain: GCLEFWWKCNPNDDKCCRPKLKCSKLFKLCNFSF

[1] = biological target: T2, Pept 02 (GsMTx4 loop2-derived peptide) (Grammostola spatulata, not fully specified (bridges); printed as Trp-Lys-Cys-Asn-Pro-Asn-Asp-Asp-Lys-Cys; cysteine pairing not given here); test: as above
T2 chain: WKCNPNDDKC

B1: SAKcaC (stretch-activated BK channel) (protein)
chain: not shown
In the case of B1, the Kd (GsMTx4) is reported as 47.2 nM and the Kd [1] is reported as 23.8 nM.
